We go through one protein from paper PMC8465381, “Dopamine-Conjugated Carbon Dots Inhibit Human Calcitonin Fibrillation” (Nanomaterials, 2021).

Positions of bridges follow the written chain, without caps; N, C: chain ends. No end group written: not given here.

This series concerns the molecule itself. Briefly: thioflavin-T fluorescence kinetics + TEM; 64 μM hCT alone, 50 mM phosphate buffer pH 7.4, 16 μM ThT, 1% DMSO, 25 °C, 384-well nonbinding plate with agitation every 2 h; end products negatively stained for TEM; fibril formation (self-assembly).

B1: Human calcitonin (peptide, UniProt P01258 85-116, looked up)
peptide: CGNLSTCMLGTYTQDFNKFHTFPQTAIGVGAP-NH2
modifications: disulfide 1-7
notes: human calcitonin, 32-residue hormone peptide cut from the calcitonin precursor; numbers count on: the mature protein; Forms amyloid fibrils; preformed fibrils of the same peptide were used as seeds; also called hCT; source: synthetic peptide (Fmoc solid-phase synthesis, RP-HPLC purified)
Turning to B1, the binding result is given as “binds”.
